Values of other authors as cited in US8536148B2, “Disabling autophagy as a treatment for lysosomal storage diseases” (The United States of America, as Represented by the …, priority 2009, dated 2013).

Test system: Hunter syndrome patients
[1] = from baseline, both dosing regimens

B1: idursulfase: recombinant human I2S produced in a human cell line, approved for Hunter syndrome (protein, UniProt P22304 34-455; P22304 456-550, looked up)
Iduronate 2-sulfatase 42 kDa …: TDALNVLLIIVDDLRPSLGCYGDKLVRSPNIDQLASHSLLFQNAFAQQAVCAPSRVSFLTGRRPDTTRLYDFNSYWRVHAGNFSTIPQYFKENGYVTMSVGKVFHPGISSNHTDDSPYSWSFPPYHPSSEKYENTKTCRGPDGELHANLLCPVDVLDVPEGTLPDKQSTEQAIQLLEKMKTSASPFFLAVGYHKPHIPFRYPKEFQKLYPLENITLAPDPEVPDGLPPVAYNPWMDIRQREDVQALNISVPYGPIPVDFQRKIRQSYFASVSYLDTQVGRLLSALDDLQLANSTIIAFTSDHGWALGEHGEWAKYSNFDVATHVPLIFYVPGRTASLPEAGEKLFPYLDPFDSASQLMEPGRQSMDLVELVSLFPTLAGLAGLQVPPRCPVPSFHVELCREGKNLLKHFRFRDLEEDPYLPG
Iduronate 2-sulfatase 14 kDa …: NPRELIAYSQYPRPSDIPQWNSDKPSLKDIKIMGYSIRTIDYRYTVWVGFNPDEFLANFSDIHAGELYFVDSDPLQDHNMYNDSQGGDLFQLLMP
- Liver and spleen volumes [1]: significantly reduced from baseline
- Urine GAG excretion [1]: significantly reduced from baseline
- Tolerability (human, in vivo): generally well tolerated
- Clinical improvement vs placebo (patients with Hunter syndrome): statistically significant improvement rate compared with placebo
